The test system of data set [1] is CCCC(=O)Oc1ccc([N+](=O)[O-])cc1. Briefly: purified protein, by the assay type. The following applies: other: substrate of recombinant cutinase; release of PNP followed by absorbance.
Experimental: The cutinase concentration was 1 M. The release of PNP was followed using absorbance spectroscopy.
Spectrophotometric measurement was performed at room temperature using BECKMAN DU-640 spectrophotometer (BECKMAN COULTER, INC., Fullerton, Calif.). Esterase activity of purified recombinant cutinase was measured by monitoring p-nitrophenol butyrate (PNB) hydrolysis rates at 410 nm (=8,800 M-1 cm-1) in buffer A.
In data set [2] the target is biotin-NH-Arg-Asp-Cys-CONH2. Briefly: SPR, fibrinogen (0.5 mg/mL) flowed over 2% maleimide SAM treated with the peptide; FIG. 4. On the technique in general: In SPR one partner is held on a chip, and binding of the other changes the refractive index at the surface.
Data set [3] concerns the target biotin-NH-Arg-Asp-Cys-CONH2. The experiment in a line: SPR (Biacore 3000), streptavidin flowed over 2% maleimide SAM treated with the peptide (1.2 mM, 12 min); FIG. 3 sensorgram A.

The record followed here is US20090325262A1, “Immobilization of biological molecules onto surfaces coated with monolayers” (SURFACE LOGIX, INC., priority 2001, published 2009).

For orientation: Km means the concentration of substrate that gives half-maximal velocity. Regarding cutinase (Fusarium vanettenii), the Km in data set [1] is 1000 µM.

Consider fibrinogen, for which, in data set [2], the SPR response (RU) came to 60 RU. In data set [3], “streptavidin (from UniProt P22629 37-163)” displayed an SPR response (RU) of 2280 RU.
